Experiment [1] concerns the target T1, collagen type III.
T1 construct: Bought protein; also called collagen III; type III collagen
Put plainly: ELISA on plates coated with collagen III; apparent KD by nonlinear regression, one-site specific binding [panel C]. The protocol: (§1) Detection of CBD-IL-2 binding to collagen proteins. The measurement is performed as described previously (Ishihara et al., Sci Transl Med 9:doi:10.1126/scitranslmed.aan0401, 2017). 96-well ELISA plates (Greiner Bio One) were coated with 10 μg/mL collagen I (EMD Millipore), collagen III (EMD Millipore), or 1 μg/mL recombinant mouse IL-2Rα (SinoBiological) in PBS for 1 h at 37° C., followed by blocking with 2% BSA in PBS with 0.05% Tween 20 (PBS-T) for 1 hr at RT. Then, wells were washed with PBS-T and further incubated with 10 μg/mL CBD- or unmodified-IL-2 for 1 hr at RT. After 3 washes with PBS-T, wells were incubated for 1 hr at RT with HRP-conjugated antibody against rat IgG (Jackson ImmunoResearch). After washes, bound CBD-IL2 and IL-2 were detected with tetramethylbenzidine substrate by measurement of the absorbance at 450 nm with subtraction of 570 nm. The apparent dissociation constant (KD) values were obtained by nonlinear regression analysis in Prism software (v7, GraphPad Software) assuming one-site specific binding.
For orientation: An ELISA detects its analyte on a solid surface through an enzyme-linked reagent.

Experiment [2] has as its target T2, collagen type I.
T2 construct: Bought protein; also called collagen I; type I collagen
Description: ELISA on plates coated with collagen I; apparent KD by nonlinear regression, one-site specific binding [panel C]. The procedure: as §1

The next experiment deals with T3, recombinant mouse IL-2Rα (mouse, UniProt P01590 22-236, limits assumed).
T3 construct: Bought recombinant protein; also called rm IL-2Rα
T3 sequence (looked up): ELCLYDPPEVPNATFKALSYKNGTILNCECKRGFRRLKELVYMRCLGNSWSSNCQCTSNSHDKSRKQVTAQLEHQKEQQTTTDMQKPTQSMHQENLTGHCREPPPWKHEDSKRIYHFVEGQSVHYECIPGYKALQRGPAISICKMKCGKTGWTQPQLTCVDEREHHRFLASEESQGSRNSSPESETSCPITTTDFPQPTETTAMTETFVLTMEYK
Put plainly: ELISA on plates coated with recombinant mouse IL-2Rα; apparent KD by nonlinear regression, one-site specific binding [panel C]. The procedure: as §1

The target of experiment [3] is CCR5 on ThP1 human monocytes (human, UniProt P51681 1-352). Put plainly: cell-based or functional assay.
CCR5 on ThP1 human monocytes, sequence (P51681 whole entry): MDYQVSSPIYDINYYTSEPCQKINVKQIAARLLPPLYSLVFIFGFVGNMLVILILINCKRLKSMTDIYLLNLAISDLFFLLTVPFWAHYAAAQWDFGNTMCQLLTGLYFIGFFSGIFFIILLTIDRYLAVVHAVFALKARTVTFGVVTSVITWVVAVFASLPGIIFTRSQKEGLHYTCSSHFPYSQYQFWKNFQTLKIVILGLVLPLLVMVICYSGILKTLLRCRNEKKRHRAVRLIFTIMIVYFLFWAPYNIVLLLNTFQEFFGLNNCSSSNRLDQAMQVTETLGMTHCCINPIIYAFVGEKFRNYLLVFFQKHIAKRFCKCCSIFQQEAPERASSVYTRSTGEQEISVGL
Experiment [4] addresses T2, collagen type I. Description: SPR, collagen I immobilised on the chip, CBD-CCL4 flowed at 15.6 to 500 nM, 1:1 Langmuir fit [panel B]. The protocol:
(§2) FIGS. 6A-6D. CBD-CCL4 fusion protein binds to collagen I and collagen III and maintains its activity. (A) WT CCL4 and CBD-CCL4 were analyzed by SDS-PAGE followed by Coomassie blue staining. (B,C) Affinity of CBD-CCL4 against (B) collagen I and (C) collagen III was measured by SPR. SPR chips were functionalized with collagen I (˜500 RU) and collagen III (˜700 RU), and the CBD-CCL4 was flowed over the chips at indicated concentrations. Curves represent the obtained specific responses (in resonance units (RU)) to CBD-CCL4. Experimental curves were fitted with 1:1 Langmuir fit model. Binding kinetics values [dissociation constants (KD) and rate constants (kₒₙ and koff)] determined from the fitted curves are shown. (D) GPCR activation assay comparing signaling of WT CCL4 and CBD-CCL4 in ThP1 monocytes. EC₅₀ values were calculated using a non-linear dose-response curve fit model. Each point represents mean±SEM, n=3.
(§3) CBD-CCL4 collagen binding measurements using SPR. SPR measurements were made with a Biacore X100 SPR system™ (GE Healthcare). Collagen I or collagen III was immobilized via amine coupling on a CM5 chip (GE Healthcare) for ˜1000 resonance units (RU) according to the manufacturer's instructions. […] Specific binding of CBD-CCL4 to collagen was calculated automatically using the response to a non-functionalized channel as a reference. […]
(In SPR one partner is held on a chip, and binding of the other changes the refractive index at the surface.)

The target in experiment [5] is T1, collagen type III. Description: SPR (Biacore X100), collagen III on CM5 chip, 1:1 Langmuir fit. The procedure:
as §2, §3

Experiment [6] addresses T1, collagen type III. Description: SPR, collagen III immobilised on the chip, CBD-CCL4 flowed at 15.6 to 500 nM, 1:1 Langmuir fit [panel C]. The procedure: as §2, §3
For experiment [7], the target named is T2, collagen type I. Put plainly: SPR (Biacore X100), collagen I on CM5 chip, 1:1 Langmuir fit. The protocol:
as §2, §3

T1 sequence (P02461 154-1221): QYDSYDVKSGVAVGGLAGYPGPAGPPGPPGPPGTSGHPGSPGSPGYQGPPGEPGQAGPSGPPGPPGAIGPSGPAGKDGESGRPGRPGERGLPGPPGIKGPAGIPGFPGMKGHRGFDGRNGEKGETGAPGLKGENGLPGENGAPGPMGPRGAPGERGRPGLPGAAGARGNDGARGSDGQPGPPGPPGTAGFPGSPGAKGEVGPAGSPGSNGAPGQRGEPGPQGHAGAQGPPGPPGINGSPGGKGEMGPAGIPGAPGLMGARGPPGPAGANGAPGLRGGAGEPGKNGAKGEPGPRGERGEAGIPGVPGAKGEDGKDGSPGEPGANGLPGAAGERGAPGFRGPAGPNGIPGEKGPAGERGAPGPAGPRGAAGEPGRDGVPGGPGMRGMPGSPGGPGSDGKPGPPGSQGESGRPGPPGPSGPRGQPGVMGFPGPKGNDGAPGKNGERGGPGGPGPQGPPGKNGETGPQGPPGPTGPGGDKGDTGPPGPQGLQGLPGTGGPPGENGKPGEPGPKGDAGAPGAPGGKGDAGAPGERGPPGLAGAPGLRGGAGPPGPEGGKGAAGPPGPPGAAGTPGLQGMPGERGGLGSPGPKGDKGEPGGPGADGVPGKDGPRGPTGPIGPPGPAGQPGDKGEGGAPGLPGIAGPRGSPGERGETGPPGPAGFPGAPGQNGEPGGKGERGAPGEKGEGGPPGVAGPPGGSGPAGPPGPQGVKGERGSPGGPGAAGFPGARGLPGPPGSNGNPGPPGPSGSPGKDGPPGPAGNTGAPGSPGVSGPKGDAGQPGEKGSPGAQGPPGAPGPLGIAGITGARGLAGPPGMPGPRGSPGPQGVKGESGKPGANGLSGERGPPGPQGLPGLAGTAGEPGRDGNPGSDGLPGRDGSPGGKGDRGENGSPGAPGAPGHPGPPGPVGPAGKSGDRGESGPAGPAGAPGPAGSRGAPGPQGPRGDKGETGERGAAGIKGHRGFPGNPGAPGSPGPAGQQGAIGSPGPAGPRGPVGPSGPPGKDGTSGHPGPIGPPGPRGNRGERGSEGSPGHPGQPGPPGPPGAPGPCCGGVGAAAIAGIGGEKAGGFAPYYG

B1: CBD-fused IL-2 recombinant protein (the vWF A3 domain and mouse IL-2 fusion protein) (other)
chain: CSQPLDVILLLDGSSSFPASYFDEMKSFAKAFISKANIGPRLTQVSVLQYGSITTIDVPWNVVPEKAHLLSLVDVMQREGGPSQIGDALGFAVRYLTSEMHGARPGASKAVVILVTDVSVDSVDAAADAARSNRVTVFPIGIGDRYDAAQLRILAGPAGDSNVVKLQRIEDLPTMVTLGNSFLHKLCSGFVRIGGGSGGGSPTSSSTSSSTAEAQQQQQQQQQQQQHLEQLLMDLQELLSRMENYRNLKLPRMLTFKFYLPKQATELKDLQCLEDELGPLRHVLDLTQSKSFQLEDAENFISNIRVTVVKLKGSDNTFECQFDDESATVVDFLRRWIAFCQSIISTSPQ
notes: also called CBD-IL-2
In the case of B1, the Kd with collagen type III [1] was found to be 181 nM; with collagen type I [2], 268 nM; with recombinant mouse IL-2Rα it was 54.7 nM.

B2: CBD-CCL4 (human vWF A3 domain and murine CCL4 fusion protein) (other)
chain: CSQPLDVILLLDGSSSFPASYFDEMKSFAKAFISKANIGPRLTQVSVLQYGSITTIDVPWNVVPEKAHLLSLVDVMQREGGPSQIGDALGFAVRYLTSEMHGARPGASKAVVILVTDVSVDSVDAAADAARSNRVTVFPIGIGDRYDAAQLRILAGPAGDSNVVKLQRIEDLPTMVTLGNSFLHKLCSGFVRIGGGGSGGGGSAPMGSDPPTSCCFSYTSRQLHRSFVMDYYETSSLCSKPAVVFLTKRGRQICANPSEPWVTEYMSDLELNHHHHHH
notes: also called CBD-CCL4 fusion protein; vWF A3 domain-CCL4 fusion protein
Take B2: the “EC50, calcium flux (RFU) in ThP1 monocytes [panel D]” value in experiment [3] was found to be 7 nM. Besides, the koff in the experiment with collagen type I [4] stood at 0.0031 s⁻¹; with collagen type III [6] it was 0.0078 s⁻¹. For the same molecule, the kon with collagen type I [4] came out at 95000 M⁻¹ s⁻¹; with collagen type III [6] it was 540000 M⁻¹ s⁻¹. For the same molecule, the figures for the Kd with collagen type III [5] and with collagen type I [7] were 14.5 nM and 33.4 nM, respectively.

B3: wild-type mouse IL-2 (His-tagged) (ligand)
chain: PTSSSTSSSTAEAQQQQQQQQQQQQHLEQLLMDLQELLSRMENYRNLKLPRMLTFKFYLPKQATELKDLQCLEDELGPLRHVLDLTQSKSFQLEDAENFISNIRVTVVKLKGSDNTFECQFDDESATVVDFLRRWIAFCQSIISTSPQ
notes: The entry includes the C-terminal 6xHis tag as printed; also called wild-type IL-2; unmodified-IL-2
As for B3, the Kd in the experiment with recombinant mouse IL-2Rα stood at 60 nM.

A word on the koff: it is the first-order rate constant of dissociation. A low value points to slow dissociation. One may read the kon as a measure of how fast the partners come together. A low value points to slow association.
